Source: publication PMC12804944 (Nature Communications, 2025)

Target: human FcγRIIb on Huvec-2b cells (Homo sapiens (Human)., UniProt P31994)
Assay: flow cytometry on cells

human FcγRIIb on Huvec-2b cells, sequence (P31994 43-310): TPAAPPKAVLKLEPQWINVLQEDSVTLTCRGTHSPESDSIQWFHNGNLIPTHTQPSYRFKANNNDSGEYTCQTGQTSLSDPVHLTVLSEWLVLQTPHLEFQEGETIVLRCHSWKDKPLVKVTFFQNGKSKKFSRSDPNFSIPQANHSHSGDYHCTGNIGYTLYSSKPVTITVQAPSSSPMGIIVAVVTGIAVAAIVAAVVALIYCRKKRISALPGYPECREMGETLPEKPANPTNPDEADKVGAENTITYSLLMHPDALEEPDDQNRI

| Binder | binding result |
| --- | --- |
| SK4-Fc (Fc fusion, human) VH: QVQLVETGGGVVQVGRSLRLSCAASGFTFSHYGMHWVRQAPGKGLEWVSGISWNSDRRGYADSVKGRFTISRDNTKNSLYLQMNSLRAEDTAVYYCVREFYDAFDIWGQGTMVTVSS VL: DIQMTQSPSSLPAYVGDRVTISCRASQSIRTYLNWYRQKVGKAPELLVYDASSLHKGVPSRFSASGSGTDFSLTISSLQPEDFATYYCQQSFSSPRTFGQGTKVEIK | binds |
| SK3-Fc (Fc fusion, human) VH: QVLVETGGGVVQPGRSLRLSCAASGFTFSSYGMHWVRQAPGKGLEWVAVISYDGDDKDYADSVKGRFTISRDNADSSVFLQMNSLRAEDTALYYCAREGQWVGGALDIWGQGTMVTVSS VL: DIVMTQSPSTLSASLGDTVTITCRASQSINGWLAWYQQKPGKAPNLLIYQAPNLESGVPSRFSGSGSGTEFTLTINGLQPDDFATYYCQKYDNAPHTFGQGTKVEIK | binds |
